According to US11510992:
Blank lines part the entries; values can stand above or below the substance they belong to.

How the values were obtained:
[1] = target: cynomolgus monkey FcγR1/CD64 (cynomolgus monkey)
[2] = target: cynomolgus monkey FcγR2A/CD32a (cynomolgus monkey)
[3] = target: cynomolgus monkey FcγR2B/CD32b (cynomolgus monkey)
[4] = target: human FcγR1/CD64 (human) (UniProt P12314)
[5] = target: human FcγR2A/CD32a (R167) (human) (UniProt P12318)
[6] = target: mouse FcγR1/CD64 (mouse) (UniProt P26151)
[7] = target: mouse FcγR2B/CD32b (mouse) (UniProt P08101)
[8] = target: rat FcγR1/CD64 (rat)
[9] = target: rat FcγR2A/CD32a (rat)
[10] = target: rat FcγR2B/CD32b (rat) (UniProt Q63203)
[11] = target: rat FcγR3A/CD16a (rat) (UniProt Q6XPU4)
[12] = target: cynomolgus monkey FcRn (cynomolgus monkey) (UniProt Q8SPV9); assay: pH 5.8
[13] = target: human FcRn (human) (UniProt P55899); assay: pH 5.8
[14] = target: mouse FcRn (mouse) (UniProt Q61559); assay: pH 5.8
[15] = target: rat FcRn (rat) (UniProt P13599); assay: pH 5.8
[16] = target: cynomolgus monkey FcRn (cynomolgus monkey) (UniProt Q8SPV9); assay: pH 7.4
[17] = target: mouse FcRn (mouse) (UniProt Q61559); assay: pH 7.4
[18] = target: neuraminidase of influenza A/CA/07/2009 (H1N1)pdm (influenza A virus A/CA/07/2009 (H1N1)pdm); assay: cell-based or functional assay
[19] = target: neuraminidase of influenza A/HK/1/1968 (H3N2) (influenza A virus A/HK/1/1968 (H3N2)) (UniProt Q91MA2); assay: cell-based or functional assay
[20] = target: neuraminidase of influenza B/Malaysia/2506/2004 (Victoria) (influenza B virus B/Malaysia/2506/2004 (Victoria)); assay: cell-based or functional assay
[21] = target: Neuraminidase of influenza A/Hawaii/70/2019 (H1N1pdm09) (influenza A virus A/Hawaii/70/2019 (H1N1pdm09)); assay: cell-based or functional assay
[22] = target: Neuraminidase of influenza A/Hong Kong/2671/2019 (H3N2) (influenza A virus A/Hong Kong/2671/2019 (H3N2)); assay: cell-based or functional assay
[23] = target: Neuraminidase of influenza B/Phuket/3073/2013 (Yamagata) (influenza B virus B/Phuket/3073/2013 (Yamagata)); assay: cell-based or functional assay
[24] = target: Neuraminidase of influenza B/Washington/02/2019 (Victoria) (influenza B virus B/Washington/02/2019 (Victoria)); assay: cell-based or functional assay

mouse FcγR1/CD64 (mouse), sequence (P26151 25-297 limits assumed): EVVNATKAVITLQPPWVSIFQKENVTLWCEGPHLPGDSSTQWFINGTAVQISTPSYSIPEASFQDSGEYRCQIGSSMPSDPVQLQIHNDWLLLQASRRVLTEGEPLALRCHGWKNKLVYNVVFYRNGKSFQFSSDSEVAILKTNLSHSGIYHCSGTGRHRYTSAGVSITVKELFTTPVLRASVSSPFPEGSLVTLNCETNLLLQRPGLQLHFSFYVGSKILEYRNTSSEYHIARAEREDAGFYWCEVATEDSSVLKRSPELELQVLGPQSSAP
rat FcγR3A/CD16a (rat), sequence (Q6XPU4 21-203 limits assumed): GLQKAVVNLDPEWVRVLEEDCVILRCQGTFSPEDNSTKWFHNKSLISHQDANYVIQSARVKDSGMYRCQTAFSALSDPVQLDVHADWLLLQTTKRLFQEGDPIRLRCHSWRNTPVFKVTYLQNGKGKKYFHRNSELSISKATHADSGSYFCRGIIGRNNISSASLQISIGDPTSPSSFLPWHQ
rat FcRn (rat), sequence (P13599 23-298 limits assumed, form in doubt, chain 1 of 2): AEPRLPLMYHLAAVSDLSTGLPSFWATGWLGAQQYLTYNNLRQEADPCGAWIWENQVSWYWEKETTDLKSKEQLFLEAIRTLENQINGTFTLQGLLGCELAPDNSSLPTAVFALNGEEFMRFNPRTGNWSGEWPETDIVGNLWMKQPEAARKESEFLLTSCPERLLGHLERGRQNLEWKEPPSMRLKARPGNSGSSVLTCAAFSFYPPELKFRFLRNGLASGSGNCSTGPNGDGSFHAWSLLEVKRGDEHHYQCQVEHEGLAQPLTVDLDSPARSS
rat FcRn (rat), sequence (chain, as listed by the source limits assumed, form in doubt, chain 2 of 2): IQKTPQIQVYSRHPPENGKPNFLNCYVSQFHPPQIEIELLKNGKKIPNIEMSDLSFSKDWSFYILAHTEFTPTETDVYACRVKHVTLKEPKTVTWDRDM
mouse FcγR2B/CD32b (mouse), sequence (P08101 30-210): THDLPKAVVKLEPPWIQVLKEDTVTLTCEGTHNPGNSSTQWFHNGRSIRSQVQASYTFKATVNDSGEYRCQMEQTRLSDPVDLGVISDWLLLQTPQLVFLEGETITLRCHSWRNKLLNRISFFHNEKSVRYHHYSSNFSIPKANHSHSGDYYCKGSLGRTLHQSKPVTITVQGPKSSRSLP
rat FcγR2B/CD32b (rat), sequence (Q63203 32-212): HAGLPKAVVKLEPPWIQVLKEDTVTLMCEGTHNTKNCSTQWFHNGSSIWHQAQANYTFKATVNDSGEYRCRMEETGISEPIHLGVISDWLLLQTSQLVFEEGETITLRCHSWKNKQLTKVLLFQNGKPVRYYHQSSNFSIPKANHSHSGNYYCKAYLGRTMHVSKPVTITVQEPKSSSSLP
human FcγR1/CD64 (human), sequence (P12314 16-288 limits assumed): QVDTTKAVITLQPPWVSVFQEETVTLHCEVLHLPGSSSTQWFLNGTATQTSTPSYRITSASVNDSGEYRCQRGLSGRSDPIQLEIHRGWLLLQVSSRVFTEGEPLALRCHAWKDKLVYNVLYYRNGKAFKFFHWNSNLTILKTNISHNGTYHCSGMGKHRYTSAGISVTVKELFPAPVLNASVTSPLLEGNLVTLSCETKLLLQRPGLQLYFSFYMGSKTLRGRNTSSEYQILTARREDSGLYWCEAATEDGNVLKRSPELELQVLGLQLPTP
human FcγR2A/CD32a (R167) (human), sequence (P12318 36-218 H167R): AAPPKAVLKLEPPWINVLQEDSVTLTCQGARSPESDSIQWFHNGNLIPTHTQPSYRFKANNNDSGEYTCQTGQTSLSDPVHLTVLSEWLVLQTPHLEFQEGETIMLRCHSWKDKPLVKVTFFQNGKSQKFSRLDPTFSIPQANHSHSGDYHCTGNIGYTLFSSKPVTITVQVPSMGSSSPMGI

EC50 [1]: 0.37 nM | EC50 [2]: 693 nM | EC50 [3]: 1 nM | EC50 [4]: 7 nM | EC50 [5]: 144 nM | EC50 [6]: 3 nM | EC50 [7]: 153 nM | EC50 [8]: 2 nM | EC50 [9]: 1 nM | EC50 [10]: 208 nM | EC50 [11]: 0.008 nM | EC50 [12]: 28 nM | EC50 [13]: 44 nM | EC50 [14]: 5 nM | EC50 [15]: 13 nM | EC50 [16]: 78 nM | EC50 [17]: 40 nM
Substance: human IgG1 isotype control antibody

Substance: Fc alone (SEQ ID NO: 73) (from UniProt P0DOX5 203-448)
ADCP (fold induction), reporter cells on MDCK cells, MOI 0 (fold induction) [18]: 0.98 | ADCP (fold induction), reporter cells on infected MDCK cells, MOI 0.1 (fold induction) [18]: 1.14 | ADCP (fold induction), reporter cells on infected MDCK cells, MOI 0.3 (fold induction) [18]: 1.03 | ADCP (fold induction), reporter cells on infected MDCK cells, MOI 1 (fold induction) [18]: 0.99 | ADCP (fold induction), reporter cells on infected MDCK cells, MOI 3 (fold induction) [18]: 0.93 | ADCP (fold induction), reporter cells on infected MDCK cells, MOI 10 (fold induction) [18]: 1.05 | ADCP (fold induction), reporter cells on MDCK cells, MOI 0 (fold induction) [19]: 1.02 | ADCP (fold induction), reporter cells on infected MDCK cells, MOI 0.1 (fold induction) [19]: 1.07 | ADCP (fold induction), reporter cells on infected MDCK cells, MOI 0.3 (fold induction) [19]: 1.05 | ADCP (fold induction), reporter cells on infected MDCK cells, MOI 1 (fold induction) [19]: 1.18 | ADCP (fold induction), reporter cells on infected MDCK cells, MOI 3 (fold induction) [19]: 1.01 | ADCP (fold induction), reporter cells on infected MDCK cells, MOI 10 (fold induction) [19]: 1.06 | ADCP (fold induction), reporter cells on MDCK cells, MOI 0 (fold induction) [20]: 1.07 | ADCP (fold induction), reporter cells on infected MDCK cells, MOI 0.1 (fold induction) [20]: 0.98 | ADCP (fold induction), reporter cells on infected MDCK cells, MOI 0.3 (fold induction) [20]: 0.99 | ADCP (fold induction), reporter cells on infected MDCK cells, MOI 1 (fold induction) [20]: 1.14 | ADCP (fold induction), reporter cells on infected MDCK cells, MOI 3 (fold induction) [20]: 1.11 | ADCP (fold induction), reporter cells on infected MDCK cells, MOI 10 (fold induction) [20]: 1

Substance: hIgG1 Fc (from UniProt P01857 84-329)
IC50, enzyme-linked lectin assay (ELLA), fetuin substrate, live virus [21]: > 1000 nM | IC50, enzyme-linked lectin assay (ELLA), fetuin substrate, live virus [22]: > 1000 nM | IC50, enzyme-linked lectin assay (ELLA), fetuin substrate, live virus [23]: > 1000 nM | IC50, enzyme-linked lectin assay (ELLA), fetuin substrate, live virus [24]: > 1000 nM
